Measured values as given in patent publication US20150344570A1 (published 2015).

T1: FcγRIIa R (FcγRIIa allotype with Arg at position 131), extracellular domain with C-terminal His tag (human, UniProt P12318 34-217)
T1 construct: extracellular domain; made in FreeStyle293 cells; analyte in the Biacore assay; also called FcγRIIa type R; 2aR
T1 sequence (looked up): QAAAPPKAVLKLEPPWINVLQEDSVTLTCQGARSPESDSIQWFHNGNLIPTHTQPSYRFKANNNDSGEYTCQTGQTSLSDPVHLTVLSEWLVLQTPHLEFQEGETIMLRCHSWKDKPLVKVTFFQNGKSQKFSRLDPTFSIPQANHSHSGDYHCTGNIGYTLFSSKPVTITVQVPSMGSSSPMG

T2: FcγRIIb extracellular domain with C-terminal His tag (human, UniProt P31994 43-217)
T2 construct: extracellular domain; Expressed in FreeStyle293 cells; analyte in the SPR assay; also called FcgRIIb; 2b
T2 sequence (looked up): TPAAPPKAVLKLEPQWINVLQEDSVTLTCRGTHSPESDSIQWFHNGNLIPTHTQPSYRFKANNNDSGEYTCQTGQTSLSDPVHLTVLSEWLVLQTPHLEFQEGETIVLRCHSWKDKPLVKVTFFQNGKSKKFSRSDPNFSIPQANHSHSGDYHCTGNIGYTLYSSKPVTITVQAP

T3: FcγRIIb, extracellular domain with C-terminal His tag (human, UniProt P31994 43-217)
T3 construct: extracellular domain; made in FreeStyle293 cells; analyte in the Biacore assay; also called 2b; FcgRIIb
T3 sequence (looked up): T2 sequence (looked up)

B1: GpH7-A5/GpH7-B3 variant L234_14T/GpL16-k0 (antibody, human IgG1, kappa)
heavy 1: not shown
heavy 2: not shown
light: DIVMTQSPLSLPVTPGEPASISCQASESLVHSNRNTYLHWYLQKPGQSPQLLIYKVSNRFSGVPDRFSGSGSGTDFTLKISRVEAEDVGVYYCSQNTHVPPTFGQGTKVEIERTVAAPSVFIFPPSDEQLKSGTASVVCLLNNFYPREAKVQWKVDNALQSGNSQESVTEQDSKDSTYSLSSTLTLSKADYEKHKVYACEVTHQGLSSPVTKSFNRGEC
notes: heterodimerized IgG1, mutation in one H chain only; also called He Ab
B2: GpH7-A5/GpH7-B3 variant L234_11K/GpL16-k0 (He Ab) (antibody, human IgG1, kappa)
heavy 1: not shown
heavy 2: not shown
light: B1 light
notes: He Ab: mutation in one H chain only
B3: GpH7-A5/GpH7-B3 variant L234_12R/GpL16-k0 (He Ab) (antibody, human IgG1, kappa)
heavy 1: not shown
heavy 2: not shown
light: B1 light
notes: as for B2
B4: GpH7-A5/GpH7-B3 variant L235_14T/GpL16-k0 (He Ab) (antibody, human IgG1, kappa)
heavy 1: not shown
heavy 2: not shown
light: B1 light
notes: as for B2
B5: GpH7-A5/GpH7-B3 variant L235_03V/GpL16-k0 (He Ab) (antibody, human IgG1, kappa)
heavy 1: not shown
heavy 2: not shown
light: B1 light
notes: as for B2
B6: GpH7-A5/GpH7-B3 variant L234_13S/GpL16-k0 (He Ab) (antibody, human IgG1, kappa)
heavy 1: not shown
heavy 2: not shown
light: B1 light
notes: as for B2
B7: GpH7-A5/GpH7-B3 variant L235_11K/GpL16-k0 (He Ab) (antibody, human IgG1, kappa)
heavy 1: not shown
heavy 2: not shown
light: B1 light
notes: as for B2
B8: GpH7-A5/GpH7-B3 variant L235_02A/GpL16-k0 (He Ab) (antibody, human IgG1, kappa)
heavy 1: not shown
heavy 2: not shown
light: B1 light
notes: as for B2
B9: GpH7-A5/GpH7-B3 variant L234_19Q/GpL16-k0 (He Ab) (antibody, human IgG1, kappa)
heavy 1: not shown
heavy 2: not shown
light: B1 light
notes: as for B2
B10: GpH7-A5/GpH7-B3 variant L235_19Q/GpL16-k0 (He Ab) (antibody, human IgG1, kappa)
heavy 1: not shown
heavy 2: not shown
light: B1 light
notes: as for B2
B11: GpH7-A5/GpH7-B3 variant L235_06M/GpL16-k0 (He Ab) (antibody, human IgG1, kappa)
heavy 1: not shown
heavy 2: not shown
light: B1 light
notes: as for B2
B12: GpH7-A5/GpH7-B3 variant L235_01G/GpL16-k0 (He Ab) (antibody, human IgG1, kappa)
heavy 1: not shown
heavy 2: not shown
light: B1 light
notes: as for B2
B13: GpH7-A5/GpH7-B3 variant L234_14T/GpL16-k0 (He Ab) (antibody, human IgG1, kappa)
heavy 1: not shown
heavy 2: not shown
light: B1 light
notes: as for B2
B14: GpH7-A5/GpH7-B3 variant L235_05P/GpL16-k0 (He Ab) (antibody, human IgG1, kappa)
heavy 1: not shown
heavy 2: not shown
light: B1 light
notes: as for B2
B15: GpH7-A5/GpH7-B3 variant L235_18N/GpL16-k0 (He Ab) (antibody, human IgG1, kappa)
heavy 1: not shown
heavy 2: not shown
light: B1 light
notes: as for B2
B16: GpH7-A5/GpH7-B3 variant L234_16H/GpL16-k0 (He Ab) (antibody, human IgG1, kappa)
heavy 1: not shown
heavy 2: not shown
light: B1 light
notes: as for B2
B17: GpH7-A5/GpH7-B3 variant L235_13S/GpL16-k0 (He Ab) (antibody, human IgG1, kappa)
heavy 1: not shown
heavy 2: not shown
light: B1 light
notes: as for B2

What follows are binders tested against T1, FcγRIIa R (FcγRIIa allotype with Arg at …) (assay: SPR (Biacore); He/Con_2aR divided by He/Con_2b, binding to FcγRIIa R against binding to FcγRIIb).
Method: The heterodimerized antibodies He Abs in which one of the H chains was introduced with an alteration were assayed for their binding activities to each activating FcγR and inhibitory FcγR according to the method described in Example 4. […] The activating FcγRs in FIGS. 26, 27, 28, and 29 are FcγRIa, FcγRIIa (R), FcγRIIa (H), and FcγRIIIa, respectively.
Analysis of interaction between objective antibody and the FcγR was carried out using Biacore T100 (GE Healthcare). HBS-EP+ (GE Healthcare) was used as the running buffer, and the measurement temperature was set to 25° C. Chips produced by immobilizing the antigen peptide by the amine coupling method to a Series S Sencor Chip CM5 (GE Healthcare), or alternatively, chips produced by allowing preliminarily biotinylated antigen peptides to interact with and immobilize onto a Series S Sensor Chip SA (certified) (GE Healthcare) were used. Antibodies of interest were captured onto an antigen peptide-immobilized chip, and allowed to interact to each FcγR diluted with running buffer. To regenerate and repeatedly use the chip, the antibodies captured on the chip were washed off by reacting 10 mM glycine-HCl, pH 1.5.

| He_2aR/2b (IIaR/IIb) | Binder |
| --- | --- |
| 1.24 ratio | B1 |

Each binder was assayed against T2, FcγRIIb extracellular domain with … (assay: SPR (Biacore), relative binding, HeCon Ab = 100).

| He/Con_2b | Binder |
| --- | --- |
| 16.2 % of HeCon Ab (=100) | B2 |
| 18.9 % of HeCon Ab (=100) | B3 |
| 46.8 % of HeCon Ab (=100) | B4 |
| 66.4 % of HeCon Ab (=100) | B5 |
| 59.3 % of HeCon Ab (=100) | B6 |
| 6.3 % of HeCon Ab (=100) | B7 |
| 63 % of HeCon Ab (=100) | B8 |
| 60.3 % of HeCon Ab (=100) | B9 |
| 42.6 % of HeCon Ab (=100) | B10 |
| 81 % of HeCon Ab (=100) | B11 |
| 35.4 % of HeCon Ab (=100) | B12 |
| 62.5 % of HeCon Ab (=100) | B13 |
| 54.7 % of HeCon Ab (=100) | B14 |
| 54.9 % of HeCon Ab (=100) | B15 |
| 59.4 % of HeCon Ab (=100) | B16 |
| 48.2 % of HeCon Ab (=100) | B17 |

Each binder was assayed against T4, FcγRIa extracellular domain with C-terminal His tag (human, UniProt P12314 16-292) (assay: SPR (Biacore), relative binding, HeCon Ab = 100).
T4 construct: extracellular domain; Expressed in FreeStyle293 cells; analyte in the SPR assay; also called FcgRI; 1a
T4 sequence (P12314 16-292): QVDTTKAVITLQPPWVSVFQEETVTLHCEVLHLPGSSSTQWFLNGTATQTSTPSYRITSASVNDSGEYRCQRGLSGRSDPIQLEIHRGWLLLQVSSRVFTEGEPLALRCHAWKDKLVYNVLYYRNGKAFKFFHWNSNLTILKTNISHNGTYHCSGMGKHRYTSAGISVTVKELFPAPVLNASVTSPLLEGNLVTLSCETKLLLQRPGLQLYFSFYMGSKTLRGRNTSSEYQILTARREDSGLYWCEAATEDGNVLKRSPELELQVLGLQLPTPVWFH

| He/Con_1a | Binder |
| --- | --- |
| 91.8 % of HeCon Ab (=100) | B2 |
| 91.8 % of HeCon Ab (=100) | B3 |
| 88.7 % of HeCon Ab (=100) | B4 |
| 94.7 % of HeCon Ab (=100) | B5 |
| 96.9 % of HeCon Ab (=100) | B6 |
| 79.9 % of HeCon Ab (=100) | B7 |
| 92.2 % of HeCon Ab (=100) | B8 |
| 95.7 % of HeCon Ab (=100) | B9 |
| 94 % of HeCon Ab (=100) | B10 |
| 98 % of HeCon Ab (=100) | B11 |
| 87.2 % of HeCon Ab (=100) | B12 |
| 98.6 % of HeCon Ab (=100) | B13 |
| 94.7 % of HeCon Ab (=100) | B14 |
| 92.2 % of HeCon Ab (=100) | B15 |
| 94 % of HeCon Ab (=100) | B16 |
| 90.5 % of HeCon Ab (=100) | B17 |

These binders were tested against T3, FcγRIIb, extracellular domain with … (assay: SPR (Biacore), antibody captured, FcγR analyte; vs GpH7-A5/GpH7-B3/GpL16-k0 = 100).

| He/Con_2b | Binder |
| --- | --- |
| 62.5 relative (HeCon Ab = 100) | B1 |

The binders below were run against T1, FcγRIIa R (FcγRIIa allotype with Arg at …) in the same assay as above.

| He/Con_2aR | Binder |
| --- | --- |
| 77.5 relative (HeCon Ab = 100) | B1 |

These binders were tested against T4, FcγRIa extracellular domain with … (assay: SPR (Biacore); He/Con_1a divided by He/Con_2b (FcγRIa against FcγRIIb)).

| He_1a/2b (Ia/IIb) | Binder |
| --- | --- |
| 5.67 ratio | B2 |
| 4.86 ratio | B3 |
| 1.9 ratio | B4 |
| 1.43 ratio | B5 |
| 1.63 ratio | B6 |
| 12.7 ratio | B7 |
| 1.46 ratio | B8 |
| 1.59 ratio | B9 |
| 2.21 ratio | B10 |
| 1.21 ratio | B11 |
| 2.46 ratio | B12 |
| 1.58 ratio | B13 |
| 1.73 ratio | B14 |
| 1.68 ratio | B15 |
| 1.58 ratio | B16 |
| 1.88 ratio | B17 |
